# Laboratory results taken from the supplement of paper PMC9732359.
# ± gives the uncertainty stated by the source.
# Experiment: protein stability index of a GFP-peptide fusion (yeast GPS) (PSI 1-4); higher = more stable; sorted into four equal gates, so the index is relative within each strain
# Summary of the method: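 Plasmids in a pooled yeast library fused tiled 17-residue yeast protein peptides downstream of GFP and also expressed Cherry. Mid-log cultures grown without leucine were sorted into four equal gates by GFP/Cherry fluorescence ratio. Each gate's plasmids were PCR-amplified and Illumina-sequenced, and reads were matched to strains by barcodes. The protein stability index is derived by multiplying each gate's read frequency by its gate number and summing the results.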
Sequence,protein stability index (doa10∆),protein stability index (pdr5∆),protein stability index (san1∆),protein stability index (ubr1∆)
DNDFIINDFKKIGRENE [POP5],3.33 ± 0.071,3.38 ± 0.072,3.3 ± 0.057,3.35 ± 0.047
VFGISKTSSGSYNYVEN [ITC1],3.33 ± 0.083,3.12 ± 0.073,3.17 ± 0.06,3.28 ± 0.041
LISDSNINNSSVAEKEE [SWI3],1.6 ± 0.14,1.73 ± 0.13,1.56 ± 0.12,1.55 ± 0.11
SQYSTMVNIGLHNLNEY [RGR1],1.16 ± 0.14,2.09 ± 0.1,1.16 ± 0.09,1.25 ± 0.13
VGRQDPKKHLSETADET [RPN11],3.17 ± 0.078,2.96 ± 0.09,3.51 ± 0.066,2.92 ± 0.078
ENDAKKSKGDVDIKGED [NUT1],3.18 ± 0.12,3.27 ± 0.2,2.95 ± 0.16,3.2 ± 0.12
DQRDELLEQKKSIINSQ [ITC1],3.08 ± 0.085,3.1 ± 0.075,3.11 ± 0.062,3.19 ± 0.068
MVMREETIKSLEDPYKY [CSN9],1.62 ± 0.08,1.66 ± 0.078,1.25 ± 0.2,1.73 ± 0.054
ITSGGFLLKAYINVSRG [SRB5],2.23 ± 0.17,2.48 ± 0.12,2.32 ± 0.15,2.53 ± 0.15
IVHDDPASDDILDNINH [ITC1],2.98 ± 0.072,3.02 ± 0.062,3.04 ± 0.09,3.25 ± 0.058
LPHITQLEGFESRKAFF [RPB2],2.92 ± 0.082,2.96 ± 0.06,3.08 ± 0.052,3.12 ± 0.041
SSLRNQELLNAETLCFT [RPN3],2.89 ± 0.11,3.02 ± 0.15,3.22 ± 0.065,3.11 ± 0.091
KGSSLASAASEAIRDPK [SSN8],2.43 ± 0.053,2.62 ± 0.063,2.65 ± 0.065,2.99 ± 0.049
VRIYSGLLKRGDTVRIL [SNU114],,2.92 ± 0.17,2.66 ± 0.17,3.02 ± 0.1
LGEFSITYTPVRHGRAG [RPS15],1.85 ± 0.15,1.85 ± 0.12,1.61 ± 0.15,
IERLTKRQFNNSYWLII [ITC1],3.01 ± 0.077,2.62 ± 0.099,2.16 ± 0.097,2.13 ± 0.071
LTDHRKETWLHELSSSH [SRB8],,3.58 ± 0.19,,2.76 ± 0.14
VDPKRLAMVIIKEFVDD [DSN1],3.33 ± 0.1,3.3 ± 0.1,3.31 ± 0.096,3.1 ± 0.066
ETIQADLNHVTEELQTQ [SMC2],3.21 ± 0.14,3.21 ± 0.06,3.02 ± 0.066,3.01 ± 0.1
DPRHIQLLGDVMTYKGE [RPO31],2.91 ± 0.07,3.17 ± 0.055,2.79 ± 0.063,3.06 ± 0.048
FNRDNKVSPAAAAKKAL [RPS26B],2.4 ± 0.12,2.5 ± 0.21,2.61 ± 0.11,2.79 ± 0.12
DTTVNDCLDKLLNDECT [SNF2],3.43 ± 0.16,3.46 ± 0.1,3.59 ± 0.075,3.73 ± 0.094
SQSSNANICLTFLESIN [SIN4],2.42 ± 0.048,2.61 ± 0.054,2.55 ± 0.05,2.74 ± 0.048
TNLKMKRKWSYVLYAKI [RRP43],1.71 ± 0.058,2.37 ± 0.042,1.75 ± 0.16,2.09 ± 0.15
EKIMENKYPELLGKDNE [AAR2],3.04 ± 0.073,3.24 ± 0.062,3.24 ± 0.039,2.96 ± 0.045
LPLISTDVLEISKQRTF [YMR129W/POM152],2.17 ± 0.068,2.74 ± 0.06,2.46 ± 0.062,2.51 ± 0.049
FTICLNDRNPRLNENKK [CSN12],3.03 ± 0.053,3.21 ± 0.056,3.11 ± 0.043,3.06 ± 0.043

Sequence,protein stability index (doa10∆),protein stability index (pdr5∆),protein stability index (san1∆),protein stability index (ubr1∆)
NNGLPMKNKAETTTEED [ITC1],2.35 ± 0.29,3.18 ± 0.1,2.94 ± 0.092,3.03 ± 0.12
SPVYDVDPRIINSENDY [NUT1],2.92 ± 0.08,3.02 ± 0.074,2.39 ± 0.08,2.76 ± 0.059
TVHSKSRTRAHAQSKRE [RPL19A],3.19 ± 0.074,3.07 ± 0.079,2.96 ± 0.068,3.19 ± 0.069
KSIDSKTPEEVEVYAKI [ISW2],1.88 ± 0.078,,2.88 ± 0.14,3.01 ± 0.12
DFIGHNSNINTLTASPD [ASC1],2.83 ± 0.075,2.87 ± 0.052,2.87 ± 0.068,2.96 ± 0.039
PDLPALEASYSKSYTPR [SMC4],2.28 ± 0.064,3.02 ± 0.088,2.75 ± 0.1,2.6 ± 0.071
KVISEILTREVQNSTLA [RPS1B],2.51 ± 0.11,2.86 ± 0.1,2.64 ± 0.069,2.32 ± 0.059
SVHLIECYKQLFLTAPD [YCS4],1.52 ± 0.24,,,
PFVPVLDRRFEIFFKKD [FAS1],2.87 ± 0.059,2.98 ± 0.067,2.73 ± 0.055,2.86 ± 0.057
RSKGKQNRPYNHPELQG [RPC17],2.08 ± 0.047,2.32 ± 0.082,2.03 ± 0.088,1.94 ± 0.053
FSFGGTQTGQNTGPSTG [YGL172W/NUP49],3.59 ± 0.23,3.34 ± 0.17,3.18 ± 0.1,3.1 ± 0.11
ITFLQTLYIGNTANGRP [ECM29],2.04 ± 0.085,2.73 ± 0.09,2.6 ± 0.16,1.97 ± 0.12
VPQSEETRAELSQLCAV [RPO21],2.37 ± 0.067,3.02 ± 0.065,2.79 ± 0.067,3.09 ± 0.061
FITKHLPLLILENSSRS [NUT1],1.36 ± 0.098,1.41 ± 0.067,1.12 ± 0.2,1.14 ± 0.032
EDKQNIEINEDNSQDDQ [RRI2],3.44 ± 0.073,3.25 ± 0.066,3.23 ± 0.039,3.23 ± 0.04
KYLKKRKIGISIDDHPY [RPC31],1.41 ± 0.075,1.33 ± 0.081,1.77 ± 0.099,1.74 ± 0.051
VAEKMNGCSGADVKGVC [RPT6],3.41 ± 0.24,,3.19 ± 0.23,3.07 ± 0.11
ETSSFGSMFSGDNTSDV [RRI1],3.48 ± 0.11,3.08 ± 0.13,3.25 ± 0.063,2.66 ± 0.15
MSNDPGNEVSSLYPPPP [MED7],3.21 ± 0.1,2.92 ± 0.071,2.69 ± 0.082,3.08 ± 0.062
KVKAGVRSANEDGTFSV [RRP43],3.2 ± 0.097,3.24 ± 0.11,3.48 ± 0.061,3.43 ± 0.077
NPASATDNMSGRGLWNP [YJL039C/NUP192],2.71 ± 0.079,3.1 ± 0.082,2.8 ± 0.076,3.16 ± 0.075
LSALNSEISSLKGKINN [SMC1],3.03 ± 0.09,3 ± 0.092,3.08 ± 0.064,3.06 ± 0.075
KDEIVLSGNSVEDVSQN [RPL9A],,3.52 ± 0.26,,
NQMKVAPIPKQLLQRIP [GAL11],2.28 ± 0.07,2.54 ± 0.062,2.52 ± 0.054,2.3 ± 0.043
LSGLSADKPFTRLTAYQ [YML031W/NDC1],2.95 ± 0.058,3.14 ± 0.06,2.95 ± 0.058,2.97 ± 0.063
VHNTNSFIISSLDTLEL [NUT1],2 ± 0.076,2.34 ± 0.067,1.99 ± 0.086,2.54 ± 0.07
LEFSALSAADIVAQSEV [RPO31],3.01 ± 0.093,3.13 ± 0.075,3.1 ± 0.071,3.17 ± 0.059
